Laboratory results taken from paper PMC5979958 (Scientific Reports, 2018).
Where “and” joins values, the source holds several entries; their conditions need not be identical. Equal entries are not always repeated.

Assays:
[1] = system: MIF/CXCR4-dependent JVM-3 lymphocyte chemotaxis; assay: inhibition of MIF-mediated JVM-3 B cell chemotaxis by RLR-containing peptides; type: cell-based, human; settings: 16 nM WT-MIF, pre-incubated 30 min, migration 24 h, 3–12 replicates, 2–3 experiments
Procedure: (§1) Migration assays using the CXCR4-expressing JVM-3 B cell line were performed in a transmigration well as previously described[32] using the following modifications. Briefly, JVM-3 B cells were sub-cultured and transferred to media without FBS. A migration assay was performed using 24-well format Transwell membranes (Sigma-Corning; 5 µm pore size) containing 1 × 10^6 JVM-3 cells in the upper chamber. […] As positive control, 8 nM CXCL12 was used. Wells without chemoattractant served as negative control and were used to normalize migration effects to ‘chemotactic index’ (number of migrated cells in the presence of chemoattractant divided by the number of migrated cells in the absence of the chemoattractant) – as described previously. […] Cells were allowed to migrate for 24 h. After migration, cells in the lower chamber were counted using Countbright absolute counting beads (Invitrogen) using a FACSVerse flow cytometer (BD Biosciences, Heidelberg, Germany).

[2] = size exclusion chromatography, oligomeric state; type: physicochemical; settings: Superdex 75, 20 mM sodium phosphate, pH 7.2
Procedure: The mutant protein was eluted from the anion exchange column via salt gradient and subjected to size exclusion chromatography (SEC) for further purification.
Following Q sepharose, the protein was further purified by size exclusion chromatography (SEC, Superdex 75, GE Healthcare) in 20 mM sodium phosphate buffer, pH 7.2, i.e. buffer conditions compatible with MIF bioactivity.

[3] = circular dichroism spectroscopy; type: physicochemical; settings: for aggregation-tendency: far-UV CD at 1, 2.5, and 5 µM, 10 mM sodium phosphate, pH 7.2, 25 °C
Procedure: CD spectroscopy provides a good estimation of the secondary structural profile of a protein and records relative changes in average secondary structural content, e.g. when a mutated protein is compared to its wildtype counterpart.
Far-UV circular dichroism (CD) spectra were recorded in a Jasco 700 CD spectropolarimeter (Jasco Labor- u. Datentechnik GmbH, Groß-Umstadt, Germany). Scans were recorded at 25 °C between 195 and 250 nm as an average of three scans and smoothed to obtain the final data. Spectra were collected at 1.0 nm intervals with a bandwidth of 1 nm in a buffer containing 10 mM sodium phosphate, pH 7.2. […] CD spectra are presented as a plot of mean residue ellipticities. […] Secondary structure fractions were quantitated by the Dichroweb online software webtool by deconvolutions of CD spectra using ContinLL at DichroWeb and the reference spectra set 7[43],[44].

[4] = target: the molecule itself; assay: SEC; Superdex 75 in 20 mM sodium phosphate buffer, pH 7.2, after Q sepharose; peaks at approximately 23 and 38 kDa
[5] = system: JVM-3 B cells (CXCR4-expressing); assay: lymphocyte chemotaxis assay, JVM-3 B cells (chemoattractant); type: cell-based, human; settings: for chemotactic effect compared with another chemoattractant: WT-MIF compared with CXCL12, RLR mutant compared with WT-MIF
Procedure: JVM-3 cells (ACC-18) are a chronic B cell leukemia cell line and were kindly provided by Prof. M. Hallek, University of Cologne Medical School, Cologne, Germany. JVM-3 were grown in RPMI media with 1% penicillin/streptomycin and 10% fetal bovine serum (Invitrogen-Thermo Fisher Scientific, Karlsruhe, Germany) essentially as described previously. Miscellaneous cell culture reagents also were bought from Invitrogen-Thermo Fisher Scientific and from PAA (Pasching, Austria). LPS content of the purified WT-MIF and RLR mutant proteins was tested by limulus amoebocyte assay (LAL, Lonza, Cologne, Germany) following the manufacturer’s recommendation. All other reagents were obtained from Sigma, Merck, Roth, or Calbiochem, and were of the highest purity degree available.
as §1

[6] = system: human CXCR4 expressed in S. cerevisiae; settings: yeast CXCR4 signaling system, in comparison with CXCL12; cited from earlier work
Description: To address the contribution of the RLR motif to MIF/CXCR4-specific cell signaling responses, we employed a genetically modified strain of Saccharomyces cerevisiae that replaces the yeast ste2 GPCR with human CXCR4 as previously reported. This cell system eliminates complications from mammalian cells that usually express more than one or all MIF cell surface receptors and is based on agonist-mediated activation of CXCR4 leading to a signaling cascade that results in β-galactosidase expression from the Fus1-lacZ reporter plasmid.

ERLRISPDRVYINYY [MIF(86–100), RLR-spanning MIF peptide]
inhibition of WT-MIF-mediated JVM-3 chemotaxis ([1]; peptide 10 nM and 100 nM): trend towards inhibition
inhibition of WT-MIF-mediated JVM-3 chemotaxis ([1]; peptide 1 µM): significant and complete blockade

YSKLLCGLLAERLRI [MIF(76–90), RLR-spanning MIF peptide]
inhibition of WT-MIF-mediated JVM-3 chemotaxis ([1]; peptide 10 nM and 100 nM): ablated

B1: R87A-L88A-R89A-MIF (ligand, human, UniProt P14174 1-115, looked up)
chain: MPMFIVNTNVPRASVPDGFLSELTQQLAQATGKPPQYIAVHVVPDQLMAFGGSSEPCALCSLHSIGKIGGAQNRSYSKLLCGLLAEAAAISPDRVYINYYDMNAANVGWNNSTFA
notes: also called RLR mutant; MIF R87A-L88A-R89A triple mutant; source: E. coli BL21/DE3 (pET11b), purified (Q sepharose anion exchange, Superdex 75 SEC)
approximate molecular size of SEC peak, first species ([2]; suggests dimers): ~23 kDa
approximate molecular size of SEC peak, second species ([2]; suggests trimers): ~38 kDa
increase of random coil content vs WT-MIF ([3]; CD deconvolution by Dichroweb): approximately 20%
reduction of α-helix content vs WT-MIF ([3]; CD deconvolution by Dichroweb): 12%
reduction of β-strand percentage vs WT-MIF ([3]; CD deconvolution by Dichroweb): 7%
decrease in ordered secondary structural content vs WT-MIF ([3]; CD spectroscopy): 20%
aggregation-tendency [3]: neither protein showed an aggregation-tendency
stoichiometry N [4]: 2 and 3
chemotactic activity on JVM-3 B cells ([5]; RLR mutant 8 nM, 16 nM, 32 nM, p = ns, 24 h, Transwell 5 µm): did not exhibit a significant chemotactic activity
chemotactic activity on JVM-3 lymphocytes ([5]; RLR mutant 16 nM (optimal concentration of WT-MIF)): failed to show any chemotactic activity
chemotactic activity on JVM-3 lymphocytes ([5]; RLR mutant 32 nM, effect did not reach statistical significance): slight increase in activity
chemotactic effect compared with another chemoattractant [5]: Impaired chemotactic effect
chemotactic effect compared with another chemoattractant ([5]; listed as MIF R87A-L88A-R89A triple mutant): reduced cell migratory response
chemotactic effect compared with another chemoattractant ([5]; listed as RLR-mutant of MIF): reduction

B2: macrophage migration inhibitory factor (protein, UniProt P14174 2-115, looked up)
Macrophage migration …: PMFIVNTNVPRASVPDGFLSELTQQLAQATGKPPQYIAVHVVPDQLMAFGGSSEPCALCSLHSIGKIGGAQNRSYSKLLCGLLAERLRISPDRVYINYYDMNAANVGWNNSTFA
notes: recombinant human MIF
aggregation-tendency [3]: neither protein showed an aggregation-tendency
type of agonism at CXCR4 [6]: partial allosteric agonism
chemotactic effect compared with another chemoattractant [5]: lower than that of CXCL12
